T1: recombinant human TL1A (human, UniProt O95150 71-251)
T1 construct: The ELISA method says only 'recombinant TL1A' coated on plates; homotrimeric cytokine; also called TNFSF15; recombinant TL1A
T1 chain: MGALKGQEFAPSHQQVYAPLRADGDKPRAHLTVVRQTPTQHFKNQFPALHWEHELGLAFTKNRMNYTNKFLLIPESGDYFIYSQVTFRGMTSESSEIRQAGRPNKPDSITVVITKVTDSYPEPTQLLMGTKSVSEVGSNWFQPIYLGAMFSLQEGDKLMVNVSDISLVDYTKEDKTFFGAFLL

B1: TL1A-0254 (antibody, V domains shown)
VH: QVQLVQSGAEVKKPGASVKVSCKASGYDFTYYGISWVRQAPGQGLEWMGWISTYGGNTHYAPSLQGRVTMTTDTSTSTAYMELRSLRSDDTAVYYCARESYYGSGAFRGGMDVWGQGTTVTVSS
VL: DIQMTQSPSSLSASVGDRVTITCRASQSVSSYLAWYQQKPGKAPKLLIYDASNRATGVPSRFSGSGSGTDFTLTISSLQPEDFATYYCQQRSNWPWTFGQGTKVEIKR
notes: IgG1 effector-minimized/kappa
B2: TL1A-0260 (antibody, human IgG1, kappa, V domains shown)
VH: QVQLVQSGAEVKKPGASVKVSCKASGYDYTYYGISWVRQAPGQGLEWMGWISTYNTGTHYAPSLQGRVTMTTDTSTSTAYMELRSLRSDDTAVYYCARESYYGSGAFRGGMDVWGQGTTVTVSS
VL: DIQMTQSPSSLSASVGDRVTITCRASQSVSSYLAWYQQKPGKAPKLLIYDASNRATGVPSRFSGSGSGTDFTLTISSLQPEDFATYYCQQRSNWPWTFGQGTKVEIKR
notes: human IgG1 effector-function-minimized / human kappa
B3: TL1A-0264 (antibody, human IgG1, kappa, V domains shown)
VH: QVQLVQSGAEVKKPGASVKVSCKASGYDYTYYGISWVRQAPGQGLEWMGWISTYNTVTHYAPSLQGRVTMTTDTSTSTAYMELRSLRSDDTAVYYCARESYYGSGAFRGGMDVWGQGTTVTVSS
VL: DIQMTQSPSSLSASVGDRVTITCRASQSVSSYLAWYQQKPGKAPKLLIYDASNRATGVPSRFSGSGSGTDFTLTISSLQPEDFATYYCQQRSNWPWTFGQGTKVEIKR
notes: as for B2
B4: TL1A-0267 (antibody, human IgG1, kappa, V domains shown)
VH: QVQLVQSGAEVKKPGASVKVSCKASGYDYTYYGISWVRQAPGQGLEWMGWISTYNTNTHYAPSLQGRVTMTTDTSTSTAYMELRSLRSDDTAVYYCARESYYGSGAHRGGMDVWGQGTTVTVSS
VL: DIQMTQSPSSLSASVGDRVTITCRASQSVSSYLAWYQQKPGKAPKLLIYDASNRATGVPSRFSGSGSGTDFTLTISSLQPEDFATYYCQQRSNWPWTFGQGTKVEIKR
notes: as for B2
B5: TL1A-0261 (antibody, human IgG1, kappa, V domains shown)
VH: QVQLVQSGAEVKKPGASVKVSCKASGYDYTYYGISWVRQAPGQGLEWMGWISTYNTGTHYAPSLQGRVTMTTDTSTSTAYMELRSLRSDDTAVYYCARESYYGSGAHRGGMDVWGQGTTVTVSS
VL: DIQMTQSPSSLSASVGDRVTITCRASQSVSSYLAWYQQKPGKAPKLLIYDASNRATGVPSRFSGSGSGTDFTLTISSLQPEDFATYYCQQRSNWPWTFGQGTKVEIKR
notes: as for B2
B6: TL1A-0255 (antibody, V domains shown)
VH: QVQLVQSGAEVKKPGASVKVSCKASGYDFTYYGISWVRQAPGQGLEWMGWISTYGGNTHYAPSLQGRVTMTTDTSTSTAYMELRSLRSDDTAVYYCARESYYGSGAHRGGMDVWGQGTTVTVSS
VL: DIQMTQSPSSLSASVGDRVTITCRASQSVSSYLAWYQQKPGKAPKLLIYDASNRATGVPSRFSGSGSGTDFTLTISSLQPEDFATYYCQQRSNWPWTFGQGTKVEIKR
notes: IgG1 effector-minimized/kappa
B7: TL1A-0269 (antibody, V domains shown)
VH: QVQLVQSGAEVKKPGASVKVSCKASGYDYTYYGISWVRQAPGQGLEWMGWISTYGGNTHYAPSLQGRVTMTTDTSTSTAYMELRSLRSDDTAVYYCARESYYGSGAHRGGMDVWGQGTTVTVSS
VL: DIQMTQSPSSLSASVGDRVTITCRASQSVSSYLAWYQQKPGKAPKLLIYDASNRATGVPSRFSGSGSGTDFTLTISSLQPEDFATYYCQQRSNWPWTFGQGTKVEIKR
notes: IgG1 effector-minimized/kappa
B8: TL1A-0270 (antibody, human IgG1, kappa, V domains shown)
VH: QVQLVQSGAEVKKPGASVKVSCKASGYDFSYYGISWVRQAPGQGLEWMGWISTYNDNTHYAPSLQGRVTMTTDTSTSTAYMELRSLRSDDTAVYYCARESYYGSGAFRGGMDVWGQGTTVTVSS
VL: DIQMTQSPSSLSASVGDRVTITCRASQSVSSYLAWYQQKPGKAPKLLIYDASNRATGVPSRFSGSGSGTDFTLTISSLQPEDFATYYCQQRSNWPWTFGQGTKVEIKR
notes: as for B2
B9: TL1A-0266 (antibody, human IgG1, kappa, V domains shown)
VH: QVQLVQSGAEVKKPGASVKVSCKASGYDYTYYGISWVRQAPGQGLEWMGWISTYNTNTHYAPSLQGRVTMTTDTSTSTAYMELRSLRSDDTAVYYCARESYYGSGAFRGGMDVWGQGTTVTVSS
VL: DIQMTQSPSSLSASVGDRVTITCRASQSVSSYLAWYQQKPGKAPKLLIYDASNRATGVPSRFSGSGSGTDFTLTISSLQPEDFATYYCQQRSNWPWTFGQGTKVEIKR
notes: as for B2
B10: TL1A-0256 (antibody, human IgG1, kappa, V domains shown)
VH: QVQLVQSGAEVKKPGASVKVSCKASGYDYTYYGISWVRQAPGQGLEWMGWISTYNDNTHYAPSLQGRVTMTTDTSTSTAYMELRSLRSDDTAVYYCARESYYGSGAFRGGMDVWGQGTTVTVSS
VL: DIQMTQSPSSLSASVGDRVTITCRASQSVSSYLAWYQQKPGKAPKLLIYDASNRATGVPSRFSGSGSGTDFTLTISSLQPEDFATYYCQQRSNWPWTFGQGTKVEIKR
notes: as for B2
B11: TL1A-0262 (antibody, human IgG1, kappa, V domains shown)
VH: QVQLVQSGAEVKKPGASVKVSCKASGYDYTYYGISWVRQAPGQGLEWMGWISTYNTGTHYAQKLQGRVTMTTDTSTSTAYMELRSLRSDDTAVYYCARESYYGSGAFRGGMDVWGQGTTVTVSS
VL: DIQMTQSPSSLSASVGDRVTITCRASQSVSSYLAWYQQKPGKAPKLLIYDASNRATGVPSRFSGSGSGTDFTLTISSLQPEDFATYYCQQRSNWPWTFGQGTKVEIKR
notes: as for B2
B12: TL1A-0265 (antibody, human IgG1, kappa, V domains shown)
VH: QVQLVQSGAEVKKPGASVKVSCKASGYDYTYYGISWVRQAPGQGLEWMGWISTYNTVTHYAPSLQGRVTMTTDTSTSTAYMELRSLRSDDTAVYYCARESYYGSGAHRGGMDVWGQGTTVTVSS
VL: DIQMTQSPSSLSASVGDRVTITCRASQSVSSYLAWYQQKPGKAPKLLIYDASNRATGVPSRFSGSGSGTDFTLTISSLQPEDFATYYCQQRSNWPWTFGQGTKVEIKR
notes: as for B2
B13: TL1A-0258 (antibody, human IgG1, kappa, V domains shown)
VH: QVQLVQSGAEVKKPGASVKVSCKASGYDYTYYGISWVRQAPGQGLEWMGWISTYNDNTHYAQKLQGRVTMTTDTSTSTAYMELRSLRSDDTAVYYCARESYYGSGAFRGGMDVWGQGTTVTVSS
VL: DIQMTQSPSSLSASVGDRVTITCRASQSVSSYLAWYQQKPGKAPKLLIYDASNRATGVPSRFSGSGSGTDFTLTISSLQPEDFATYYCQQRSNWPWTFGQGTKVEIKR
notes: as for B2
B14: TL1A-0268 (antibody, V domains shown)
VH: QVQLVQSGAEVKKPGASVKVSCKASGYDYTYYGISWVRQAPGQGLEWMGWISTYGGNTHYAPSLQGRVTMTTDTSTSTAYMELRSLRSDDTAVYYCARESYYGSGAFRGGMDVWGQGTTVTVSS
VL: DIQMTQSPSSLSASVGDRVTITCRASQSVSSYLAWYQQKPGKAPKLLIYDASNRATGVPSRFSGSGSGTDFTLTISSLQPEDFATYYCQQRSNWPWTFGQGTKVEIKR
notes: IgG1 effector-minimized/kappa
B15: TL1A-0263 (antibody, human IgG1, kappa, V domains shown)
VH: QVQLVQSGAEVKKPGASVKVSCKASGYDYTYYGISWVRQAPGQGLEWMGWISTYNTGTHYAQKLQGRVTMTTDTSTSTAYMELRSLRSDDTAVYYCARESYYGSGAHRGGMDVWGQGTTVTVSS
VL: DIQMTQSPSSLSASVGDRVTITCRASQSVSSYLAWYQQKPGKAPKLLIYDASNRATGVPSRFSGSGSGTDFTLTISSLQPEDFATYYCQQRSNWPWTFGQGTKVEIKR
notes: as for B2
B16: TL1A-0257 (antibody, human IgG1, kappa, V domains shown)
VH: QVQLVQSGAEVKKPGASVKVSCKASGYDYTYYGISWVRQAPGQGLEWMGWISTYNDNTHYAPSLQGRVTMTTDTSTSTAYMELRSLRSDDTAVYYCARESYYGSGAHRGGMDVWGQGTTVTVSS
VL: DIQMTQSPSSLSASVGDRVTITCRASQSVSSYLAWYQQKPGKAPKLLIYDASNRATGVPSRFSGSGSGTDFTLTISSLQPEDFATYYCQQRSNWPWTFGQGTKVEIKR
notes: as for B2
B17: TL1A-0259 (antibody, V domains shown)
VH: QVQLVQSGAEVKKPGASVKVSCKASGYDYTYYGISWVRQAPGQGLEWMGWISTYNDNTHYAQKLQGRVTMTTDTSTSTAYMELRSLRSDDTAVYYCARESYYGSGAHRGGMDVWGQGTTVTVSS
VL: DIQMTQSPSSLSASVGDRVTITCRASQSVSSYLAWYQQKPGKAPKLLIYDASNRATGVPSRFSGSGSGTDFTLTISSLQPEDFATYYCQQRSNWPWTFGQGTKVEIKR
notes: IgG1 effector-minimized/kappa

The test has as its target T1, recombinant human TL1A. The experiment in a line: competition ELISA on coated recombinant TL1A; competitor biotinylated TL1A-0002. The protocol:
For this competition ELISA assay procedure, 96-well high binding plates (Corning, product number 3590) were coated with 1 μg/mL recombinant TL1A in 100 μL/well in Phospate Buffered Saline (PBS) overnight at 4° C. Plates were then blocked in PBS+0.02% casein solution and washed with PBS+0.05% Tween-20 following standard ELISA protocol. […] Plates were washed with PBS+0.05% Tween-20 following standard ELISA protocol, and Streptavidin-HRP (Southern Biotech, product number 7100-05) diluted to 1:10,000 in assay buffer was added to plates and incubated for 25-30 minutes at room temperature. Next, the plates were washed with PBS+0.05% Tween-20 following standard ELISA protocol, and then TMB substrate (BioFX Laboratories, catalog number TMBW-0100-01) was added to plates. Reactions were stopped after approximately 5 minutes by adding 0.18 M ortho-phosphoric acid to each well and absorbance was read at 450 nm.
(In general: In an ELISA, binding on a coated surface is turned into a signal by an enzyme label.)
For the molecule B1, the “Bioactivity relative to TL1A-0002” value was found to be 9.2 fold and the IC50 amounted to 0.0463 µM.

Consider B2, for which the “Bioactivity relative to TL1A-0002” value stood at 1.3 fold and the IC50 is 0.0068 µM.

Consider B3, for which the “Bioactivity relative to TL1A-0002” value is 3.1 fold and the IC50 is 0.0158 µM.

Regarding B4, the “Bioactivity relative to TL1A-0002” value was determined as 1.3 fold and the IC50 amounted to 0.0068 µM.

In the case of B5, the “Bioactivity relative to TL1A-0002” value worked out at 1.1 fold and the half-inhibitory concentration (IC50) was found to be 0.0056 µM.

For B6, the “Bioactivity relative to TL1A-0002” value was 7.6 fold and the IC50 turned out to be 0.0384 µM.

B7: the “Bioactivity relative to TL1A-0002” value came out at 7.5 fold and the concentration for half-maximal inhibition (IC50) turned out to be 0.0377 µM.

For the molecule B8, the “Bioactivity relative to TL1A-0002” value is 2.3 fold and the concentration for half-maximal inhibition (IC50) stood at 0.0115 µM.

Consider B9, for which the “Bioactivity relative to TL1A-0002” value was found to be 1.3 fold and the IC50 was found to be 0.0066 µM.

As to B10, the “Bioactivity relative to TL1A-0002” value worked out at 2.3 fold and the IC50 came out at 0.0116 µM.

Take B11: the “Bioactivity relative to TL1A-0002” value was 1.4 fold and the IC50 is 0.0073 µM.

With B12, the “Bioactivity relative to TL1A-0002” value came out at 1.7 fold and the half-maximal inhibitory concentration (IC50) was determined as 0.0087 µM.

For the molecule B13, the “Bioactivity relative to TL1A-0002” value was determined as 2.2 fold and the half-maximal inhibitory concentration (IC50) is 0.0109 µM.

Regarding B14, the “Bioactivity relative to TL1A-0002” value came to 9.6 fold and the IC50 stood at 0.0482 µM.

For the molecule B15, the “Bioactivity relative to TL1A-0002” value is 1.2 fold and the IC50 was determined as 0.0062 µM.

Consider B16, for which the “Bioactivity relative to TL1A-0002” value was 1.9 fold and the half-inhibitory concentration (IC50) stood at 0.0095 µM.

In the case of B17, the “Bioactivity relative to TL1A-0002” value is 3.7 fold and the IC50 worked out at 0.0184 µM.

As a reminder, the IC50 is the concentration needed to halve the response being measured.

For the origin of these results see patent US20240059799A1 (Pfizer, published 2024).
